{
  "source": "paper PMC6430685",
  "about": "(Nature chemical biology, 2019)",
  "molecular_target": "Human full-length (1-192) wild type BAX (human, UniProt Q07812 1-192)",
  "sequence (Q07812 whole entry)": "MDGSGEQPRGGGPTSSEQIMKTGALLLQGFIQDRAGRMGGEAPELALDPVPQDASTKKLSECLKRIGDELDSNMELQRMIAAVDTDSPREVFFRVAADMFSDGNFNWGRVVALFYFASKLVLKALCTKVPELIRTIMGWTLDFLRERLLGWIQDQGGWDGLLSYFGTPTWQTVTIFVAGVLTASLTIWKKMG",
  "test": "fluorescence polarisation",
  "note": "No end group written: not given here. *: point of attachment. FITC = O=C1OC2(c3ccc(O)cc3Oc3cc(O)ccc32)c2ccc(NC(=S)*)cc21; Ahx = NCCCCCC(=O)O",
  "data": [
    {"binder": "{FITC-Ahx}-CEALKKALRRHRFLWQRRQRA", "note": "[vMIA peptide, FITC-Ahx-CEALKKALRRHRFLWQRRQRA]", "values": [
      {"measurement": "binding result", "result": "binds"}
    ]}
  ]
}
